Measurements published in article PMC12599251.
“And” between values parts separate entries of the source, which are not always exact repeats. Equal values may be shown once.

What was measured:
[1] = molecular target: Human Hsp90β (heat shock protein 90 beta), wild type (human) (UniProt P08238); assay: AUC; sedimentation velocity, 42,000 rpm, 20°C, 11-15 uM protein, absorbance at 280 nm, continuous c(S) distribution (SEDFIT); peroxynitrite-treated samples dialyzed beforehand
[2] = molecular target: Human Hsp90β (heat shock protein 90 beta), wild type (human) (UniProt P08238); assay: native gel or EMSA; native PAGE: 20 ug protein (1 mg/ml) on 4-20% polyacrylamide gels in native loading buffer (Tris pH 6.8, 50% glycerol); directly after purification and after incubation at 4°C or 25°C in PBS pH 7.4 for up to 48 h
[3] = molecular target: Human Hsp90β treated with 0.5 mM peroxynitrite (human) (UniProt P08238); assay: AUC; sedimentation velocity, 42,000 rpm, 20°C, 11-15 uM protein, absorbance at 280 nm, continuous c(S) distribution (SEDFIT); peroxynitrite-treated samples dialyzed beforehand
[4] = molecular target: Human Hsp90β with 3-nitrotyrosine at position 33 (human) (UniProt P08238); assay: as above
[5] = molecular target: Human Hsp90β with 3-nitrotyrosine at position 33 (human) (UniProt P08238); assay: as above; remark: listed apart in the source
[6] = molecular target: Human Hsp90β with 3-nitrotyrosine at position 33 (human) (UniProt P08238); assay: native gel or EMSA; native PAGE: 20 ug protein (1 mg/ml) on 4-20% polyacrylamide gels in native loading buffer (Tris pH 6.8, 50% glycerol); directly after purification and after incubation at 4°C or 25°C in PBS pH 7.4 for up to 48 h
[7] = molecular target: Human Hsp90β with 3-nitrotyrosine at positions 33 and 56 (human) (UniProt P08238); assay: AUC; sedimentation velocity, 42,000 rpm, 20°C, 11-15 uM protein, absorbance at 280 nm, continuous c(S) distribution (SEDFIT); peroxynitrite-treated samples dialyzed beforehand
[8] = molecular target: Human Hsp90β with 3-nitrotyrosine at position 56 (human) (UniProt P08238); assay: as above
[9] = molecular target: Human Hsp90β with 3-nitrotyrosine at position 56 (human) (UniProt P08238); assay: native gel or EMSA; native PAGE: 20 ug protein (1 mg/ml) on 4-20% polyacrylamide gels in native loading buffer (Tris pH 6.8, 50% glycerol); directly after purification and after incubation at 4°C or 25°C in PBS pH 7.4 for up to 48 h

Human Hsp90β with 3-nitrotyrosine at positions 33 and 56, P08238 1-724 (natural protein; 3-nitrotyrosine at 33 and at 56 (sole oxidative modifications); 3-nitrotyrosine at 33 and at 56 (sole oxidative, sequence (P08238 whole entry): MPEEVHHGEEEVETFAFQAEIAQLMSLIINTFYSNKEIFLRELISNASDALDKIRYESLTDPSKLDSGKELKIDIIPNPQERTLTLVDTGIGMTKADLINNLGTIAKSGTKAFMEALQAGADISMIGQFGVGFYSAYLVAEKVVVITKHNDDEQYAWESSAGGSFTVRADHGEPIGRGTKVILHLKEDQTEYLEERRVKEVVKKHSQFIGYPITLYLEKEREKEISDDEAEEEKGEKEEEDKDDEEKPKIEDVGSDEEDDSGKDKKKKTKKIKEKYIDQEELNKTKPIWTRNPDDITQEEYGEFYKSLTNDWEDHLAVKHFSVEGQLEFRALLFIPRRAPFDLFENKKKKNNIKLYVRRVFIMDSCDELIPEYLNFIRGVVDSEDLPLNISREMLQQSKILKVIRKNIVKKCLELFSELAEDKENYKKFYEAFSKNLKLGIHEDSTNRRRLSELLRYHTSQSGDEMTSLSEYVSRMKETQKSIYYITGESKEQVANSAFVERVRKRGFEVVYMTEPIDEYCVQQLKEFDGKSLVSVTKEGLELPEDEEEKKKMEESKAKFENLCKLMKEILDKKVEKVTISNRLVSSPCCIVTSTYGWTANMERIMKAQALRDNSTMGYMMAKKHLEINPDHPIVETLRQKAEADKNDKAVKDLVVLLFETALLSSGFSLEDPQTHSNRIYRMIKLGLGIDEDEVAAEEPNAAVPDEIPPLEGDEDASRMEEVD
Human Hsp90β (heat shock protein 90 beta), wild type, P08238 1-724 (natural protein; other documents disagree on this pair), sequence (P08238 whole entry): as above

Human Hsp90β (heat shock protein 90 beta), wild type, P08238 1-724 (natural protein; other documents disagree on this pair)
stoichiometry N [1]: 2
stoichiometry N [2]: 2

Human Hsp90β treated with 0.5 mM peroxynitrite, P08238 1-724 (natural protein; nitration of Y33, Y56, Y276, Y484 and Y596 after treatment with 0.5 mM peroxynitrite; nitration of Y33, Y56, Y276, Y484 and Y596 after treatment with 0.5 mM peroxynitrite; other documents disagree on this pair)
stoichiometry N [3]: 2 and 4

Human Hsp90β with 3-nitrotyrosine at position 33, P08238 1-724 (natural protein; 3-nitrotyrosine at 33 (sole oxidative modification); 3-nitrotyrosine at 33 (sole oxidative modification); other documents disagree on this pair)
stoichiometry N [4]: 2
stoichiometry N [5]: 6
stoichiometry N [6]: 2

Human Hsp90β with 3-nitrotyrosine at positions 33 and 56, P08238 1-724 (natural protein; 3-nitrotyrosine at 33 and at 56 (sole oxidative modifications); 3-nitrotyrosine at 33 and at 56 (sole oxidative modifications); other documents disagree on this pair)
stoichiometry N [7]: 2 and 6

Human Hsp90β with 3-nitrotyrosine at position 56, P08238 1-724 (natural protein; 3-nitrotyrosine at 56 (sole oxidative modification); 3-nitrotyrosine at 56 (sole oxidative modification); other documents disagree on this pair)
stoichiometry N [8]: 2
stoichiometry N [9]: 2
